In publication PMC12618484 (Nature Communications, 2025):
Changes are numbered by the printed parent chain. Names may count otherwise.

T1: dihydrolipoamide dehydrogenase (DLD) (Homo sapiens, UniProt P09622)
T1 sequence (P09622 36-509): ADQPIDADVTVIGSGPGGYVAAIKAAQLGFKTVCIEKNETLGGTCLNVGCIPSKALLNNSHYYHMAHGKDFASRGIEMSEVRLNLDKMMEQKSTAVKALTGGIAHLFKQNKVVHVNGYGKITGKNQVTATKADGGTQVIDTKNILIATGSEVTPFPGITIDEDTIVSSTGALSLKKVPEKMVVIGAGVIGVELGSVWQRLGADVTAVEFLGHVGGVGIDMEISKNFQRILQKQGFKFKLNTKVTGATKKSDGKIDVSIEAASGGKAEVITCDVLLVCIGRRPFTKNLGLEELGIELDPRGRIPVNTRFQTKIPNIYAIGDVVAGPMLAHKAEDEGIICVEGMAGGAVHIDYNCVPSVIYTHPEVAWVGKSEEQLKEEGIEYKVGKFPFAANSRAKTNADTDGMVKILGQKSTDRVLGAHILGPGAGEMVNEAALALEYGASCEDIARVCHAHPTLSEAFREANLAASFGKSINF

B1: HA-tagged DLD-K430Q (enzyme, human, UniProt P09622 36-509, looked up)
chain: T1 sequence (P09622 36-509) with K395Q
B2: HA-tagged DLD-K430R (enzyme, human, UniProt P09622 36-509, looked up)
chain: T1 sequence (P09622 36-509) with K395R

Assays:
[1] = biological target: T1, dihydrolipoamide dehydrogenase (DLD); test: bio-layer interferometry and SPR; assay type: binding
cross-linking = biological target: the molecule itself; test: cross-linking

Row | Molecule | Kd [1] [nM] | stoichiometry N (cross-linking)
1 | O=C(O)CCCCC(CCSCc1ccccc1)SCc1ccccc1 (stereo not drawn) [devimistat] | 500 to 600 | 
2 | B1 |  | 2
3 | B2 |  | 2
